T1: CD32B (FcγRII-B) (UniProt P31994 43-217, limits assumed)
T1 construct: No species or construct stated
T1 sequence (looked up): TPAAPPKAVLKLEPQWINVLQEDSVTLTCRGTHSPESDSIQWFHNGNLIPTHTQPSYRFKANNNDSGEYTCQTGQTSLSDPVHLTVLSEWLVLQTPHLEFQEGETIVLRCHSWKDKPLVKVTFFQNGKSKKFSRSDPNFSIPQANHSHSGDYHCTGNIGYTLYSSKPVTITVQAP


How the values were obtained:
Test in all cases: Table 3; relative to wild-type Fc; method not stated
[1] = biological target: CD16A V158 (human, UniProt P08637 17-208, limits assumed)
[2] = biological target: T1, CD32B (FcγRII-B)
[3] = biological target: CD16A F158 (human, UniProt P08637 17-208, limits assumed)
CD16A F158, sequence (P08637 17-208 limits assumed): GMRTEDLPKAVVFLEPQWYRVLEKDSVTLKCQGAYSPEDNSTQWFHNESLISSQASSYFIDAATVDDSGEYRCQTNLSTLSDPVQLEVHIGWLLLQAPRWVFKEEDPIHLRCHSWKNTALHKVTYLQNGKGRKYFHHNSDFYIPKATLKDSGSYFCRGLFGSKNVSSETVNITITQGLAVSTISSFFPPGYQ

CD16A V158, sequence (P08637 17-208 F176V limits assumed): as the sequence (P08637 17-208 limits assumed) above, with F160V counted along it

Binder	binding relative to wild-type Fc (fold) [1]	binding relative to wild-type Fc (fold) [2]	binding relative to wild-type Fc (fold) [3]
Fc variant D270E G316D P396L R416G (other, UniProt P01857-1 99-330, looked up, name in EU numbering, domain: Fc region; positions are EU index; also called D270E P396L G316D R416G) EPKSCDKTHTCPPCPAPELLGGPSVFLFPPKPKDTLMISRTPEVTCVVVDVSHEEPEVKFNWYVDGVEVHNAKTKPREEQYNSTYRVVSVLTVLHQDWLNDKEYKCKVSNKALPAPIEKTISKAKGQPREPQVYTLPPSRDELTKNQVSLTCLVKGFYPSDIAVEWESNGQPENNYKTTPLVLDSDGSFFLYSKLTVDKSGWQQGNVFSCSVMHEALHNHYTQKSLSLSPGK	1.22	1.07	0.94
Fc variant R255L D270E P396L (other, UniProt P01857-1 99-330, looked up, name in EU numbering, domain: Fc region; positions are EU index) EPKSCDKTHTCPPCPAPELLGGPSVFLFPPKPKDTLMISLTPEVTCVVVDVSHEEPEVKFNWYVDGVEVHNAKTKPREEQYNSTYRVVSVLTVLHQDWLNGKEYKCKVSNKALPAPIEKTISKAKGQPREPQVYTLPPSRDELTKNQVSLTCLVKGFYPSDIAVEWESNGQPENNYKTTPLVLDSDGSFFLYSKLTVDKSRWQQGNVFSCSVMHEALHNHYTQKSLSLSPGK	1.34	0.87	1.65
Fc variant F243L R292P V305I (other, UniProt P01857-1 99-330, looked up, name in EU numbering, domain: Fc region; positions are EU index) EPKSCDKTHTCPPCPAPELLGGPSVFLLPPKPKDTLMISRTPEVTCVVVDVSHEDPEVKFNWYVDGVEVHNAKTKPPEEQYNSTYRVVSILTVLHQDWLNGKEYKCKVSNKALPAPIEKTISKAKGQPREPQVYTLPPSRDELTKNQVSLTCLVKGFYPSDIAVEWESNGQPENNYKTTPPVLDSDGSFFLYSKLTVDKSRWQQGNVFSCSVMHEALHNHYTQKSLSLSPGK	2.56		1.43
Fc variant F243L R255L D270E P396L (other, UniProt P01857-1 99-330, looked up, name in EU numbering, domain: Fc region; positions are EU index) EPKSCDKTHTCPPCPAPELLGGPSVFLLPPKPKDTLMISLTPEVTCVVVDVSHEEPEVKFNWYVDGVEVHNAKTKPREEQYNSTYRVVSVLTVLHQDWLNGKEYKCKVSNKALPAPIEKTISKAKGQPREPQVYTLPPSRDELTKNQVSLTCLVKGFYPSDIAVEWESNGQPENNYKTTPLVLDSDGSFFLYSKLTVDKSRWQQGNVFSCSVMHEALHNHYTQKSLSLSPGK	1.75	0.38	1.64
Fc variant F243L D270E P396L Q419H (other, UniProt P01857-1 99-330, looked up, name in EU numbering, domain: Fc region; positions are EU index) EPKSCDKTHTCPPCPAPELLGGPSVFLLPPKPKDTLMISRTPEVTCVVVDVSHEEPEVKFNWYVDGVEVHNAKTKPREEQYNSTYRVVSVLTVLHQDWLNGKEYKCKVSNKALPAPIEKTISKAKGQPREPQVYTLPPSRDELTKNQVSLTCLVKGFYPSDIAVEWESNGQPENNYKTTPLVLDSDGSFFLYSKLTVDKSRWQHGNVFSCSVMHEALHNHYTQKSLSLSPGK	1.46	0.26	1.15
Fc variant D270E K392T P396L (other, UniProt P01857-1 99-330, looked up, name in EU numbering, domain: Fc region; positions are EU index) EPKSCDKTHTCPPCPAPELLGGPSVFLFPPKPKDTLMISRTPEVTCVVVDVSHEEPEVKFNWYVDGVEVHNAKTKPREEQYNSTYRVVSVLTVLHQDWLNGKEYKCKVSNKALPAPIEKTISKAKGQPREPQVYTLPPSRDELTKNQVSLTCLVKGFYPSDIAVEWESNGQPENNYTTTPLVLDSDGSFFLYSKLTVDKSRWQQGNVFSCSVMHEALHNHYTQKSLSLSPGK	1.81	0.79	2.28
Fc variant F243L D270E K392T P396L (other, UniProt P01857-1 99-330, looked up, name in EU numbering, domain: Fc region; positions are EU index) EPKSCDKTHTCPPCPAPELLGGPSVFLLPPKPKDTLMISRTPEVTCVVVDVSHEEPEVKFNWYVDGVEVHNAKTKPREEQYNSTYRVVSVLTVLHQDWLNGKEYKCKVSNKALPAPIEKTISKAKGQPREPQVYTLPPSRDELTKNQVSLTCLVKGFYPSDIAVEWESNGQPENNYTTTPLVLDSDGSFFLYSKLTVDKSRWQQGNVFSCSVMHEALHNHYTQKSLSLSPGK	3.16	0.44	2.44
Fc variant P247L D270E N421K (other, UniProt P01857-1 99-330, looked up, name in EU numbering, domain: Fc region; positions are EU index) EPKSCDKTHTCPPCPAPELLGGPSVFLFPPKLKDTLMISRTPEVTCVVVDVSHEEPEVKFNWYVDGVEVHNAKTKPREEQYNSTYRVVSVLTVLHQDWLNGKEYKCKVSNKALPAPIEKTISKAKGQPREPQVYTLPPSRDELTKNQVSLTCLVKGFYPSDIAVEWESNGQPENNYKTTPPVLDSDGSFFLYSKLTVDKSRWQQGKVFSCSVMHEALHNHYTQKSLSLSPGK	1.89	0.58	2.46
Fc variant F243L R292P Y300L V305I P396L (other, UniProt P01857-1 99-330, looked up, name in EU numbering, domain: Fc region) EPKSCDKTHTCPPCPAPELLGGPSVFLLPPKPKDTLMISRTPEVTCVVVDVSHEDPEVKFNWYVDGVEVHNAKTKPPEEQYNSTLRVVSILTVLHQDWLNGKEYKCKVSNKALPAPIEKTISKAKGQPREPQVYTLPPSRDELTKNQVSLTCLVKGFYPSDIAVEWESNGQPENNYKTTPLVLDSDGSFFLYSKLTVDKSRWQQGNVFSCSVMHEALHNHYTQKSLSLSPGK	10.1	1.38	8.25
Fc variant F243L R292P V305I P396L (other, UniProt P01857-1 99-330, looked up, name in EU numbering, domain: Fc region; positions are EU index) EPKSCDKTHTCPPCPAPELLGGPSVFLLPPKPKDTLMISRTPEVTCVVVDVSHEDPEVKFNWYVDGVEVHNAKTKPPEEQYNSTYRVVSILTVLHQDWLNGKEYKCKVSNKALPAPIEKTISKAKGQPREPQVYTLPPSRDELTKNQVSLTCLVKGFYPSDIAVEWESNGQPENNYKTTPLVLDSDGSFFLYSKLTVDKSRWQQGNVFSCSVMHEALHNHYTQKSLSLSPGK	5.37	0.4	2.53

The next lines start with the values.

binding relative to wild-type Fc (fold) [1]	binding relative to wild-type Fc (fold) [2]	binding relative to wild-type Fc (fold) [3]	Binder
1.5	0.2	1.34	Fc variant F243L D270E G316D R416G (other, UniProt P01857-1 99-330, looked up, name in EU numbering, domain: Fc region; positions are EU index) EPKSCDKTHTCPPCPAPELLGGPSVFLLPPKPKDTLMISRTPEVTCVVVDVSHEEPEVKFNWYVDGVEVHNAKTKPREEQYNSTYRVVSVLTVLHQDWLNDKEYKCKVSNKALPAPIEKTISKAKGQPREPQVYTLPPSRDELTKNQVSLTCLVKGFYPSDIAVEWESNGQPENNYKTTPPVLDSDGSFFLYSKLTVDKSGWQQGNVFSCSVMHEALHNHYTQKSLSLSPGK
1.89	0.17	1.71	Fc variant F243L P247L N421K (other, UniProt P01857-1 99-330, looked up, name in EU numbering, domain: Fc region; positions are EU index) EPKSCDKTHTCPPCPAPELLGGPSVFLLPPKLKDTLMISRTPEVTCVVVDVSHEDPEVKFNWYVDGVEVHNAKTKPREEQYNSTYRVVSVLTVLHQDWLNGKEYKCKVSNKALPAPIEKTISKAKGQPREPQVYTLPPSRDELTKNQVSLTCLVKGFYPSDIAVEWESNGQPENNYKTTPPVLDSDGSFFLYSKLTVDKSRWQQGKVFSCSVMHEALHNHYTQKSLSLSPGK
	0.65		Fc variant R255L D270E R292G P396L (other, UniProt P01857-1 99-330, looked up, name in EU numbering, domain: Fc region; positions are EU index) EPKSCDKTHTCPPCPAPELLGGPSVFLFPPKPKDTLMISLTPEVTCVVVDVSHEEPEVKFNWYVDGVEVHNAKTKPGEEQYNSTYRVVSVLTVLHQDWLNGKEYKCKVSNKALPAPIEKTISKAKGQPREPQVYTLPPSRDELTKNQVSLTCLVKGFYPSDIAVEWESNGQPENNYKTTPLVLDSDGSFFLYSKLTVDKSRWQQGNVFSCSVMHEALHNHYTQKSLSLSPGK
1.64	0.68		Fc variant D270E P396L Q419H (other, UniProt P01857-1 99-330, looked up, name in EU numbering, domain: Fc region; positions are EU index) EPKSCDKTHTCPPCPAPELLGGPSVFLFPPKPKDTLMISRTPEVTCVVVDVSHEEPEVKFNWYVDGVEVHNAKTKPREEQYNSTYRVVSVLTVLHQDWLNGKEYKCKVSNKALPAPIEKTISKAKGQPREPQVYTLPPSRDELTKNQVSLTCLVKGFYPSDIAVEWESNGQPENNYKTTPLVLDSDGSFFLYSKLTVDKSRWQHGNVFSCSVMHEALHNHYTQKSLSLSPGK
2.18	0.78	2.49	Fc variant D270E G316D R416G (other, UniProt P01857-1 99-330, looked up, name in EU numbering, domain: Fc region; positions are EU index) EPKSCDKTHTCPPCPAPELLGGPSVFLFPPKPKDTLMISRTPEVTCVVVDVSHEEPEVKFNWYVDGVEVHNAKTKPREEQYNSTYRVVSVLTVLHQDWLNDKEYKCKVSNKALPAPIEKTISKAKGQPREPQVYTLPPSRDELTKNQVSLTCLVKGFYPSDIAVEWESNGQPENNYKTTPPVLDSDGSFFLYSKLTVDKSGWQQGNVFSCSVMHEALHNHYTQKSLSLSPGK
10.1	1.07	5.62	Fc variant F243L R292P Y300L P396L (other, UniProt P01857-1 99-330, looked up, name in EU numbering, domain: Fc region; positions are EU index) EPKSCDKTHTCPPCPAPELLGGPSVFLLPPKPKDTLMISRTPEVTCVVVDVSHEDPEVKFNWYVDGVEVHNAKTKPPEEQYNSTLRVVSVLTVLHQDWLNGKEYKCKVSNKALPAPIEKTISKAKGQPREPQVYTLPPSRDELTKNQVSLTCLVKGFYPSDIAVEWESNGQPENNYKTTPLVLDSDGSFFLYSKLTVDKSRWQQGNVFSCSVMHEALHNHYTQKSLSLSPGK
2.3	0.32	3.45	Fc variant F243L P247L D270E N421K (other, UniProt P01857-1 99-330, looked up, name in EU numbering, domain: Fc region; positions are EU index) EPKSCDKTHTCPPCPAPELLGGPSVFLLPPKLKDTLMISRTPEVTCVVVDVSHEEPEVKFNWYVDGVEVHNAKTKPREEQYNSTYRVVSVLTVLHQDWLNGKEYKCKVSNKALPAPIEKTISKAKGQPREPQVYTLPPSRDELTKNQVSLTCLVKGFYPSDIAVEWESNGQPENNYKTTPPVLDSDGSFFLYSKLTVDKSRWQQGKVFSCSVMHEALHNHYTQKSLSLSPGK

Source: patent publication US20110097323A1 (published 2011)
